Measurements reported in article PMC7486785 (Proceedings of the National Academy of Sciences of the …, 2020).

T1: Duck egg lysozyme (DEL), D65N + N103D double mutant of the DEL-II isoform (Anas platyrhynchos, DEL-II double mutant, strain)
T1 construct: duck egg lysozyme, DEL-II isoform, D65N + N103D double mutant; differs from HEL3X at 25 amino acids; source: Pichia pastoris, secreted, purified from culture supernatant (ion exchange)
T1 chain: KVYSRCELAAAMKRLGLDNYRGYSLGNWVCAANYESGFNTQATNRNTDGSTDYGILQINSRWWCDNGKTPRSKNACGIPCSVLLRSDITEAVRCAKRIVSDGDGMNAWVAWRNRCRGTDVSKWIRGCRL

B1: HyHEL10 (Hy10) Fab, WT founder (Fab, V domains shown)
VH: DVQLQESGPSLVKPSQTLSLTCSVTGDSITSDYWSWIRKFPGNRLEYMGYVSYSGSTYYNPSLKSRISITRDTSKNQYYLDLNSVTTEDTATYYCANWDGDYWGQGTLVTVSA
VL: DIVLTQSPATLSVTPGNSVSLSCRASQSIGNNLHWYQQKSHESPRLLIKYASQSISGIPSRFSGSGSGTDFTLSINSVETEDFGMYFCQQSNSWPYTFGGGTKLEIK
notes: heavy chain of Hy10 Fab; light chain of Hy10 Fab; also called Hy10WT; source: Expi293, transient (pCEP4), purified (Talon resin, gel filtration)
B2: Hy10 Fab S31N (Fab, V domains shown)
VH: DVQLQESGPSLVKPSQTLSLTCSVTGDSITNDYWSWIRKFPGNRLEYMGYVSYSGSTYYNPSLKSRISITRDTSKNQYYLDLNSVTTEDTATYYCANWDGDYWGQGTLVTVSA
VL: DIVLTQSPATLSVTPGNSVSLSCRASQSIGNNLHWYQQKSHESPRLLIKYASQSISGIPSRFSGSGSGTDFTLSINSVETEDFGMYFCQQSNSWPYTFGGGTKLEIK
notes: as the heavy chain of Dm5 with the stated changes; as the light chain of Dm5; source: Expi293, transient (pCEP4), purified (Talon resin, gel filtration)
B3: Hy10 Fab Y58F (Fab, V domains shown)
VH: DVQLQESGPSLVKPSQTLSLTCSVTGDSITSDYWSWIRKFPGNRLEYMGYVSYSGSTFYNPSLKSRISITRDTSKNQYYLDLNSVTTEDTATYYCANWDGDYWGQGTLVTVSA
VL: DIVLTQSPATLSVTPGNSVSLSCRASQSIGNNLHWYQQKSHESPRLLIKYASQSISGIPSRFSGSGSGTDFTLSINSVETEDFGMYFCQQSNSWPYTFGGGTKLEIK
notes: as for B2
B4: Hy10 Fab S52T/Y58F (Fab, V domains shown)
VH: DVQLQESGPSLVKPSQTLSLTCSVTGDSITSDYWSWIRKFPGNRLEYMGYVTYSGSTFYNPSLKSRISITRDTSKNQYYLDLNSVTTEDTATYYCANWDGDYWGQGTLVTVSA
VL: DIVLTQSPATLSVTPGNSVSLSCRASQSIGNNLHWYQQKSHESPRLLIKYASQSISGIPSRFSGSGSGTDFTLSINSVETEDFGMYFCQQSNSWPYTFGGGTKLEIK
notes: as for B2
B5: Hy10 Fab S52T/Y53F (Fab, V domains shown)
VH: DVQLQESGPSLVKPSQTLSLTCSVTGDSITSDYWSWIRKFPGNRLEYMGYVTFSGSTYYNPSLKSRISITRDTSKNQYYLDLNSVTTEDTATYYCANWDGDYWGQGTLVTVSA
VL: DIVLTQSPATLSVTPGNSVSLSCRASQSIGNNLHWYQQKSHESPRLLIKYASQSISGIPSRFSGSGSGTDFTLSINSVETEDFGMYFCQQSNSWPYTFGGGTKLEIK
notes: as for B2
B6: Hy10 Fab I29F/S52T/Y58F (Fab, V domains shown)
VH: DVQLQESGPSLVKPSQTLSLTCSVTGDSFTSDYWSWIRKFPGNRLEYMGYVTYSGSTFYNPSLKSRISITRDTSKNQYYLDLNSVTTEDTATYYCANWDGDYWGQGTLVTVSA
VL: DIVLTQSPATLSVTPGNSVSLSCRASQSIGNNLHWYQQKSHESPRLLIKYASQSISGIPSRFSGSGSGTDFTLSINSVETEDFGMYFCQQSNSWPYTFGGGTKLEIK
notes: as for B2
B7: Hy10 Fab I29F/S52T/Y53F/Y58F (Fab, V domains shown)
VH: DVQLQESGPSLVKPSQTLSLTCSVTGDSFTSDYWSWIRKFPGNRLEYMGYVTFSGSTFYNPSLKSRISITRDTSKNQYYLDLNSVTTEDTATYYCANWDGDYWGQGTLVTVSA
VL: DIVLTQSPATLSVTPGNSVSLSCRASQSIGNNLHWYQQKSHESPRLLIKYASQSISGIPSRFSGSGSGTDFTLSINSVETEDFGMYFCQQSNSWPYTFGGGTKLEIK
notes: as for B2
B8: Hy10 Fab L4F/Y33H (Fab, V domains shown)
VH: DVQFQESGPSLVKPSQTLSLTCSVTGDSITSDHWSWIRKFPGNRLEYMGYVSYSGSTYYNPSLKSRISITRDTSKNQYYLDLNSVTTEDTATYYCANWDGDYWGQGTLVTVSA
VL: DIVLTQSPATLSVTPGNSVSLSCRASQSIGNNLHWYQQKSHESPRLLIKYASQSISGIPSRFSGSGSGTDFTLSINSVETEDFGMYFCQQSNSWPYTFGGGTKLEIK
notes: as for B2
B9: Hy10 Fab I29F (Fab, V domains shown)
VH: DVQLQESGPSLVKPSQTLSLTCSVTGDSFTSDYWSWIRKFPGNRLEYMGYVSYSGSTYYNPSLKSRISITRDTSKNQYYLDLNSVTTEDTATYYCANWDGDYWGQGTLVTVSA
VL: DIVLTQSPATLSVTPGNSVSLSCRASQSIGNNLHWYQQKSHESPRLLIKYASQSISGIPSRFSGSGSGTDFTLSINSVETEDFGMYFCQQSNSWPYTFGGGTKLEIK
notes: as for B2
B10: Hy10 Fab Y53F/S56R (Fab, V domains shown)
VH: DVQLQESGPSLVKPSQTLSLTCSVTGDSITSDYWSWIRKFPGNRLEYMGYVSFSGRTYYNPSLKSRISITRDTSKNQYYLDLNSVTTEDTATYYCANWDGDYWGQGTLVTVSA
VL: DIVLTQSPATLSVTPGNSVSLSCRASQSIGNNLHWYQQKSHESPRLLIKYASQSISGIPSRFSGSGSGTDFTLSINSVETEDFGMYFCQQSNSWPYTFGGGTKLEIK
notes: as for B2
B11: Hy10 Fab Y33H (Fab, V domains shown)
VH: DVQLQESGPSLVKPSQTLSLTCSVTGDSITSDHWSWIRKFPGNRLEYMGYVSYSGSTYYNPSLKSRISITRDTSKNQYYLDLNSVTTEDTATYYCANWDGDYWGQGTLVTVSA
VL: DIVLTQSPATLSVTPGNSVSLSCRASQSIGNNLHWYQQKSHESPRLLIKYASQSISGIPSRFSGSGSGTDFTLSINSVETEDFGMYFCQQSNSWPYTFGGGTKLEIK
notes: as the heavy chain of Dm5 with the stated changes; as the light chain of Dm5; also called Hy10-Y33H; source: Expi293, transient (pCEP4), purified (Talon resin, gel filtration)
B12: Hy10 Fab S56R (Fab, V domains shown)
VH: DVQLQESGPSLVKPSQTLSLTCSVTGDSITSDYWSWIRKFPGNRLEYMGYVSYSGRTYYNPSLKSRISITRDTSKNQYYLDLNSVTTEDTATYYCANWDGDYWGQGTLVTVSA
VL: DIVLTQSPATLSVTPGNSVSLSCRASQSIGNNLHWYQQKSHESPRLLIKYASQSISGIPSRFSGSGSGTDFTLSINSVETEDFGMYFCQQSNSWPYTFGGGTKLEIK
notes: as the heavy chain of Dm5 with the stated changes; as the light chain of Dm5; also called Hy10-S56R; source: Expi293, transient (pCEP4), purified (Talon resin, gel filtration)
B13: Hy10 Fab S52T/Y53F/Y58F (Fab, V domains shown)
VH: DVQLQESGPSLVKPSQTLSLTCSVTGDSITSDYWSWIRKFPGNRLEYMGYVTFSGSTFYNPSLKSRISITRDTSKNQYYLDLNSVTTEDTATYYCANWDGDYWGQGTLVTVSA
VL: DIVLTQSPATLSVTPGNSVSLSCRASQSIGNNLHWYQQKSHESPRLLIKYASQSISGIPSRFSGSGSGTDFTLSINSVETEDFGMYFCQQSNSWPYTFGGGTKLEIK
notes: as for B2
B14: Hy10 Fab Y53F/Y58F (Fab, V domains shown)
VH: DVQLQESGPSLVKPSQTLSLTCSVTGDSITSDYWSWIRKFPGNRLEYMGYVSFSGSTFYNPSLKSRISITRDTSKNQYYLDLNSVTTEDTATYYCANWDGDYWGQGTLVTVSA
VL: DIVLTQSPATLSVTPGNSVSLSCRASQSIGNNLHWYQQKSHESPRLLIKYASQSISGIPSRFSGSGSGTDFTLSINSVETEDFGMYFCQQSNSWPYTFGGGTKLEIK
notes: as for B2
B15: Hy10 Fab Y53F (Fab, V domains shown)
VH: DVQLQESGPSLVKPSQTLSLTCSVTGDSITSDYWSWIRKFPGNRLEYMGYVSFSGSTYYNPSLKSRISITRDTSKNQYYLDLNSVTTEDTATYYCANWDGDYWGQGTLVTVSA
VL: DIVLTQSPATLSVTPGNSVSLSCRASQSIGNNLHWYQQKSHESPRLLIKYASQSISGIPSRFSGSGSGTDFTLSINSVETEDFGMYFCQQSNSWPYTFGGGTKLEIK
notes: as for B2
B16: Hy10 Fab I29F/S52T (Fab, V domains shown)
VH: DVQLQESGPSLVKPSQTLSLTCSVTGDSFTSDYWSWIRKFPGNRLEYMGYVTYSGSTYYNPSLKSRISITRDTSKNQYYLDLNSVTTEDTATYYCANWDGDYWGQGTLVTVSA
VL: DIVLTQSPATLSVTPGNSVSLSCRASQSIGNNLHWYQQKSHESPRLLIKYASQSISGIPSRFSGSGSGTDFTLSINSVETEDFGMYFCQQSNSWPYTFGGGTKLEIK
notes: as for B2
B17: Hy10 Fab S52T (Fab, V domains shown)
VH: DVQLQESGPSLVKPSQTLSLTCSVTGDSITSDYWSWIRKFPGNRLEYMGYVTYSGSTYYNPSLKSRISITRDTSKNQYYLDLNSVTTEDTATYYCANWDGDYWGQGTLVTVSA
VL: DIVLTQSPATLSVTPGNSVSLSCRASQSIGNNLHWYQQKSHESPRLLIKYASQSISGIPSRFSGSGSGTDFTLSINSVETEDFGMYFCQQSNSWPYTFGGGTKLEIK
notes: as for B2
B18: Hy10 Fab I29F/S52T/Y53F (Fab, V domains shown)
VH: DVQLQESGPSLVKPSQTLSLTCSVTGDSFTSDYWSWIRKFPGNRLEYMGYVTFSGSTYYNPSLKSRISITRDTSKNQYYLDLNSVTTEDTATYYCANWDGDYWGQGTLVTVSA
VL: DIVLTQSPATLSVTPGNSVSLSCRASQSIGNNLHWYQQKSHESPRLLIKYASQSISGIPSRFSGSGSGTDFTLSINSVETEDFGMYFCQQSNSWPYTFGGGTKLEIK
notes: as for B2
B19: Hy10 Fab L4F (Fab, V domains shown)
VH: DVQFQESGPSLVKPSQTLSLTCSVTGDSITSDYWSWIRKFPGNRLEYMGYVSYSGSTYYNPSLKSRISITRDTSKNQYYLDLNSVTTEDTATYYCANWDGDYWGQGTLVTVSA
VL: DIVLTQSPATLSVTPGNSVSLSCRASQSIGNNLHWYQQKSHESPRLLIKYASQSISGIPSRFSGSGSGTDFTLSINSVETEDFGMYFCQQSNSWPYTFGGGTKLEIK
notes: as for B2

target: Duck egg lysozyme (DEL); test: bio-layer interferometry; conditions: parent: est. 2.5e7 M-1; read off a plot

| Molecule | Ka |
| --- | --- |
| Hy10 Fab S52N | < 100000 M⁻¹ |

target: VH substitutions L4F, S31N, Y33H, and S56N; test: BLI; BLItz; biotinylated Fab loaded on streptavidin biosensors, lysozyme proteins in solution at a range of molar concentrations; PBS (sensors rehydrated in PBS with 0.1% BSA); global fit, 1:1 Fab-lysozyme interaction; affinities printed as 1/KD; conditions: not given

| Molecule | fold decrease in affinity against Hy10 |
| --- | --- |
| HEL^3X self-lysozyme (from UniProt P00698 19-147) (natural protein) | 3 to 39 fold |

Target: T1, Duck egg lysozyme (DEL), D65N + N103D …
Test: BLI; BLItz (ForteBio); biotinylated Hy10 Fab variant immobilised on streptavidin biosensors (rehydrated in PBS with 0.1% wt/vol BSA); soluble monomeric lysozyme antigen as analyte at a range of concentrations; global fit, 1:1 Fab-lysozyme interaction
Conditions: both partners purified

| Molecule | Ka | Kd |
| --- | --- | --- |
| B1 | 2.49e+07 M⁻¹ | 40.1 nM |
| B2 | 9.6e+06 M⁻¹ | 104 nM |
| B3 | 9.35e+07 M⁻¹ | 10.7 nM |
| B4 | 3.8e+08 M⁻¹ | 2.62 nM |
| B5 | 2.81e+08 M⁻¹ | 3.56 nM |
| B6 | 5.92e+08 M⁻¹ | 1.69 nM |
| B7 | 7.51e+09 M⁻¹ | 0.133 nM |
| B8 | 5.8e+06 M⁻¹ | 172 nM |
| B9 | 6.37e+07 M⁻¹ | 15.7 nM |
| B10 | 3.73e+07 M⁻¹ | 26.8 nM |
| B11 | 1.68e+06 M⁻¹ | 594 nM |
| B12 | 4.41e+06 M⁻¹ | 227 nM |
| B13 | 1.99e+09 M⁻¹ | 0.502 nM |
| B14 | 1.13e+08 M⁻¹ | 8.85 nM |
| B15 | 1.2e+08 M⁻¹ | 8.35 nM |
| B16 | 1.73e+08 M⁻¹ | 5.79 nM |
| B17 | 2.98e+07 M⁻¹ | 33.5 nM |
| B18 | 6.1e+09 M⁻¹ | 0.164 nM |
| B19 | 3.25e+06 M⁻¹ | 308 nM |
